Where “and” joins values, the source holds several entries; their conditions need not be identical. Identical values can stand only once. Like-named read-outs stand apart in the source and are kept apart here.
Experiments:
Type in all cases: biochemical
[1] = tested on: LPETG (Abz-LPETGK(Dnp)-CONH2); experiment: In vitro sortase kinetics HPLC assay, LPETG substrate; settings: for KN: eight GGG concentrations; for KH,LPETG: LPETG substrate; for Rel. Activity: kcat/Km of the enzyme's preferred substrate relative to kcat/Km on this substrate; for activity on LPETG: round 9 clones
Method in brief: (§1)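 Abz-LXEXGK(Dnp) peptides in 300 mM Tris pH 7.5, 150 mM NaCl, 5 mM CaCl2, 5% DMSO, GGG; 22.5° C., acid-quenched, converted fraction by reverse-phase HPLC peak areas. kcat and Km from eight substrate concentrations fit to Michaelis-Menten; KH at 1 mM substrate over eight GGG levels.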

[2] = tested on: LAETG (Abz-LAETGK(Dnp)-CONH2); experiment: In vitro sortase kinetics HPLC assay, LAETG substrate; settings: for Rel. Activity: kcat/Km of the enzyme's preferred substrate relative to kcat/Km on this substrate
Method in brief: as §1

[3] = tested on: LPESG (Abz-LPESGK(Dnp)-CONH2); experiment: In vitro sortase kinetics HPLC assay, LPESG substrate; settings: for Rel. Activity: kcat/Km of the enzyme's preferred substrate relative to kcat/Km on this substrate
Method in brief: as §1

[4] = tested on: Abz-LXEXGK(Dnp) peptides; experiment: Enzyme specificity assay (percent substrate conversion by HPLC)
Procedure: (A, D) For each of eSrtA, eSrtA(2A-9), and eSrtA(4S-9), we incubated an activity matched quantity of enzyme (47.5 nM eSrtA, 450 nM eSrtA(2A-9), 115 nM eSrtA(4S-9)) with 10 μM Abz-LXEXGK(Dnp) (SEQ ID NO: 33) and 100 mM Gly-Gly-Gly peptide as listed for 15 minutes. Percent substrate conversion was monitored by reverse phase HPLC analysis and UV absorbance at 355 nm. […] LPEXG: SEQ ID NO: 34.
Assays to determine eSrtA, eSrtA(2A-9) and eSrtA(4S-9) specificity were performed by preparing 10 μM stocks of Abz-LXEXGK(Dnp) (SEQ ID NO: 75) peptides in 300 mM Tris pH 7.5, 150 mM NaCl, 5 mM CaCl2, 5% v/v DMSO, and 100 mM Gly-Gly-Gly-COOH (GGG). Reactions were performed by adding eSrtA(2A-9) to a final concentration of 450 nM, eSrtA(4S-9) to a final concentration of 115 nM or eSrtA to a final concentration of 47.5 nM and a final volume of 100 μL, then incubating at 22.5° C. for 15 minutes. Reactions were quenched by the addition of 0.2 volumes of 5 M HCl, then were injected onto an analytical reverse-phase Eclipse XDB-C18 HPLC column (4.6×150 mm, 5 μm, Agilent Technologies) and chromatographed using a gradient of 10 to 65% acetonitrile with 0.1% TFA in 0.1% aqueous TFA over 13 minutes. Retention times under these conditions for the Abz-LPETGK(Dnp)-CONH2 (SEQ ID NO: 19) substrate, the released GKDnp peptide, and the Abz-LPETGGG-COOH (SEQ ID NO: 20) product were 12.8, 10.4, and 9.1 min, respectively, while the remaining Abz-LXEXGK(Dnp)-CONH2 (SEQ ID NO: 74) substrates varied in retention time between 9 and 13 minutes. To calculate the percent conversion, the ratio of the integrated areas of the GK(Dnp)-CONH2 and Abz-LPETGK(Dnp)-CONH2 (SEQ ID NO: 19) peptide Abs355 peaks were compared directly. Subsequent determination of kcat/Km and KH were performed as described for in vitro SrtA characterization.

[5] = Example 5 variants, substrate wt (LPETG)
[6] = Example 5 variants, substrate wt (LPETG), read-out: Avg KM
[7] = GGG varied, substrate wt (LPETG)
[8] = Sub LPETG, 100 mM GGG, read-out: Km
[9] = Table 2, Sub LPETG, read-out: Km
[10] = Sub LAETG, 100 mM GGG, read-out: Km
[11] = Table 2, Sub LAETG, read-out: Km
[12] = GGG varied, substrate 4S (LPESG)
[13] = Sub LPESG, 100 mM GGG, read-out: Km
[14] = Table 2, Sub LPESG, read-out: Km
[15] = ratio of (kcat/KM)target to (kcat/KM)LPETG, relative to eSrtA
[16] = GGG varied, substrate 2A (LAETG)

B1: eSrtA(4S-9): P94R, N98D, S102C, A104V, A118T, F122A, K134R, F144L, D160N, D165A, I182V, E189F, K190E, K196T (protein)
chain: QAKPQIPKDKSKVAGYIEIPDADIKEPVYPGPATREQLDRGVCFVEENESLDDQNISITGHTAIDRPNYQFTNLRAAKKGSMVYLKVGNETRKYKMTSIRNVKPTAVEVLDEQKGKDKQLTLVTCDDYNFETGVWETRKIFVATEVK
B1 was tested, and the “KH” value ([1]; 1 mM LPETG) was 295 ± 19 µM, the “KN” value ([1]; 1 mM LPETG) was 295 ± 19 µM and the Km ([1]; 1 mM LPETG, read-out: Km,GGG) was 98000 ± 13000 µM. For the same molecule, the “Avg kcat (Hz)” value [1, 5] was 0.0468 Hz, the Km [1, 6] was 66.1 µM and the “Avg kHydro (Hz)” value [1, 7] was 0.000173 Hz. For the same molecule, the “Avg kcat (Hz)” value [1, 7] was 0.05704 Hz, the Km ([1]; KM for GGG, substrate wt (LPETG), read-out: Avg KM) was 97600 µM and the “KH,LPETG” value [1] was 295 ± 18 µM. The “Kcat (Hz)” value ([1]; Sub LPETG, 100 mM GGG) was 0.047 ± 0.006 Hz, the Km [1, 8] was 64.7 ± 4.2 µM and the “Rel. Activity” value ([1]; Sub LPETG) was 25. For the same molecule, the “Kcat (Hz)” value ([1]; Table 2, Sub LPETG) was 0.047 ± 0.006 Hz, the Km [1, 9] was 64.7 ± 4.2 µM and the “activity on LPETG” value [1] was “minimally active on LPETG”. For the same molecule, the “Avg KH” value ([1]; substrate wt (LPETG)) was 294.8601 µM, the “activity on LAETG” value [2] was “negligible activity” and the “Kcat (Hz)” value ([2]; Sub LAETG, 100 mM GGG) was 0.0078 ± 0.0006 Hz. For the same molecule, the Km [2, 10] was 387 ± 49 µM, the “Rel. Activity” value ([2]; Sub LAETG) was 898 and the “Kcat (Hz)” value ([2]; Table 2, Sub LAETG) was 0.0078 ± 0.0006 Hz. The Km [2, 11] was 387 ± 49 µM, the “KH” value ([3]; 1 mM LPESG) was 174 ± 32 µM and the “KN” value ([3]; 1 mM LPESG, eight GGG concentrations) was 174 ± 32 µM. The Km ([3]; 1 mM LPESG, read-out: Km,GGG) was 69000 ± 12000 µM, the “Avg kcat (Hz)” value ([3]; Example 5 variants, substrate 4S (LPESG)) was 2.146 Hz and the Km ([3]; Example 5 variants, substrate 4S (LPESG), read-out: Avg KM) was 123 µM. For the same molecule, the “Avg kHydro (Hz)” value [3, 12] was 0.008016 Hz, the “Avg kcat (Hz)” value [3, 12] was 3.178 Hz and the Km ([3]; KM for GGG, substrate 4S (LPESG), read-out: Avg KM) was 69500 µM. For the same molecule, the “KH (KH,LPESG)” value ([3]; LPESG substrate) was 174 ± 32 µM, the “Kcat (Hz)” value ([3]; Sub LPESG, 100 mM GGG) was 2.05 ± 0.15 Hz and the Km [3, 13] was 113 ± 12 µM. For the same molecule, the “Rel. Activity” value ([3]; Sub LPESG) was 1, the “Kcat (Hz)” value ([3]; Table 2, Sub LPESG) was 2.05 ± 0.15 Hz and the Km [3, 14] was 113 ± 12 µM. For the same molecule, the “change in specificity for LPESG versus LPETG relative to eSrtA” value [3, 15] was 120 fold and 125 fold, the “preference for LPESG over LPETG” value ([3]; ratio of kcat/KM) was 25 fold and the Specificity ([3]; ratio of kcat/KM, 4S (LPESG) over wt (LPETG)) was 24.953. The “Avg KH” value ([3]; substrate 4S (LPESG)) was 173.5925 µM, the “difference in transpeptidation of LPESG over LPETG” value ([4]; FIG. 20A, 10 μM peptide, 100 mM GGG, 15 minutes) was “approximately 40 fold” and the “activity on the substrates LPEAG, LPECG and LPESG” value ([4]; position 4 substrate profile, FIGS. 20A-B) was “significant activity”.

B2: eSrtA(2A-9): P94R, S102C, A104H, E105D, K138P, K152I, N160K, K162H, T164N, D165A, K173E, I182V, K190E, T196S (protein)
chain: QAKPQIPKDKSKVAGYIEIPDADIKEPVYPGPATREQLNRGVCFHDENESLDDQNISIAGHTFIDRPNYQFTNLKAAKPGSMVYFKVGNETRIYKMTSIRKVHPNAVEVLDEQEGKDKQLTLVTCDDYNEETGVWESRKIFVATEVK
For B2, the “KH” value ([1]; 1 mM LPETG) was 27.1 ± 0.1 µM, the “KN” value ([1]; 1 mM LPETG) was 27.1 ± 0.1 µM and the Km ([1]; 1 mM LPETG, read-out: Km,GGG) was 585 ± 3 µM. For the same molecule, the “Avg kcat (Hz)” value [1, 5] was 0.02091 Hz, the Km [1, 6] was 1270 µM and the “KH,LPETG” value [1] was 18.7 ± 3.3 µM. The “Kcat (Hz)” value ([1]; Sub LPETG, 100 mM GGG) was 0.0209 ± 0.004 Hz, the Km [1, 8] was 1270 ± 62 µM and the “Rel. Activity” value ([1]; Sub LPETG) was 510. The “Kcat (Hz)” value ([1]; Table 2, Sub LPETG) was 0.0209 ± 0.0004 Hz, the Km [1, 9] was 1270 ± 62 µM and the “activity on LPETG” value [1] was “minimally active on LPETG”. For the same molecule, the “preference for LAETG over LPESG” value [2] was > 1000 :1, the “KH” value ([2]; 1 mM LAETG) was 33 ± 4 µM and the “KN” value ([2]; 1 mM LAETG, eight GGG concentrations) was 33 ± 4 µM. The Km ([2]; 1 mM LAETG, read-out: Km,GGG) was 1480 ± 190 µM, the “Avg kcat (Hz)” value ([2]; Example 5 variants, substrate 2A (LAETG)) was 2.23 Hz and the Km ([2]; Example 5 variants, substrate 2A (LAETG), read-out: Avg KM) was 265 µM. For the same molecule, the “Avg kHydro (Hz)” value [2, 16] was 0.03506 Hz, the “Avg kcat (Hz)” value [2, 16] was 1.587 Hz and the Km ([2]; KM for GGG, substrate 2A (LAETG), read-out: Avg KM) was 1480 µM. The “Kcat (Hz)” value ([2]; Sub LAETG, 100 mM GGG) was 2.23 ± 0.02 Hz, the Km [2, 10] was 265 ± 9 µM and the “Rel. Activity” value ([2]; Sub LAETG) was 1. For the same molecule, the “Kcat (Hz)” value ([2]; Table 2, Sub LAETG) was 2.23 ± 0.02 Hz, the Km [2, 11] was 265 ± 9 µM and the “change in specificity for LAETG versus LPETG relative to eSrtA” value [2, 15] was 51,000 fold. The “preference for LAETG over LPETG” value ([2]; ratio of kcat/KM) was ~500 fold and 510 fold, the “Specificity (relative catalytic efficiency, fold)” value ([2]; ratio of kcat/KM between 2A (LAETG) and wt (LPETG)) was 509.8 fold and the “Avg KH” value ([2]; substrate 2A (LAETG)) was 32.79 µM. For the same molecule, the “activity on LPESG” value [3] was “negligible activity”, the “Kcat (Hz)” value ([3]; Sub LPESG, 100 mM GGG) was 0.0066 ± 0.0006 Hz and the Km [3, 13] was 4800 ± 1200 µM. For the same molecule, the “Rel. Activity” value ([3]; Sub LPESG) was 5943, the “Kcat (Hz)” value ([3]; Table 2, Sub LPESG) was 0.0066 ± 0.0006 Hz and the Km [3, 14] was 4800 ± 1200 µM. For the same molecule, the “reduced activity on the next most active substrates, LSETG and LRETG, versus LAETG” value ([4]; position 2 substrate profile, FIG. 20E) was greater than 20 fold.
